Results on three molecules are retold here after publication PMC7283332 (2020).

B3: Fc-iNKG2D.YA (Fc fusion)
chain: FLNSLFNQEVQIPLTESYCGPCPKNWICYKNNCYQFFDESKNWYESQASCMSQNASLLKVYSKEDQDLLKLVKSAHWMGLVHIPTNGSWQWEDGSILSPNLLTIIEMQKGDCALYASSFKGYIENCSTPNTYICMQRTV
modifications: biotinylated only in the ELISA on coated ligand-Fc proteins

Assay in all cases: BLI
Background: Biolayer interferometry detects binding as a change in optical thickness at a sensor tip.

The test “Fc-iNKG2D.YA” addresses B3.
A further test addresses T1, Fc-wtNKG2D (human, UniProt P26718 78-216).
T1 chain: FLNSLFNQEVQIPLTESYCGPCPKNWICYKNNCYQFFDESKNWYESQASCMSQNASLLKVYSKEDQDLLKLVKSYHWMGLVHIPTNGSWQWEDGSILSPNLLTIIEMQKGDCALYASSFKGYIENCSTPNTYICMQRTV

The target of test [1] is ULBP2.S3 (U2S3), monomeric α1α2 domain variant (human, UniProt Q9BZM5).

B1: ULBP2.R81W, monomeric α1α2 domain (domain or fragment)
chain: DPHSLCYDITVIPKFRPGPRWCAVQGQVDEKTFLHYDCGNKTVTPVSPLGKKLNVTTAWKAQNPVLREVVDILTEQLWDIQLENYTPKEPLTLQARMSCEQKAEGHSSGSWQFSFDGQIFLLFDSEKRMWTTVHPGARKMKEKWENDKVVAMSFHYFSMGDCIGWLEDFLMGMDSTLEPSAGAP
Usually Kd stands for a measure of binding affinity in units of concentration. Low values mean higher affinity, high ones lower affinity. For B1, the Kd with Fc-iNKG2D.YA amounted to 3600 nM; with Fc-wtNKG2D, 8 nM.

B2: ULBP2 α1α2 domain, C-terminal 6×-His (domain or fragment)
chain: DPHSLCYDITVIPKFRPGPRWCAVQGQVDEKTFLHYDCGNKTVTPVSPLGKKLNVTTAWKAQNPVLREVVDILTEQLRDIQLENYTPKEPLTLQARMSCEQKAEGHSSGSWQFSFDGQIFLLFDSEKRMWTTVHPGARKMKEKWENDKVVAMSFHYFSMGDCIGWLEDFLMGMDSTLEPSAGAP
In the case of B2, the Kd in the test with Fc-wtNKG2D was determined as 350 nM.
B3: in test [1], the dissociation constant (Kd) is 28 nM.
